Experiment in all cases: flow cytometry, CHO-K1; sub-column 2 of 2
Test [1] concerns the target T1, R87A.
T1 construct: also called hCD27 R87A
T1 receptor: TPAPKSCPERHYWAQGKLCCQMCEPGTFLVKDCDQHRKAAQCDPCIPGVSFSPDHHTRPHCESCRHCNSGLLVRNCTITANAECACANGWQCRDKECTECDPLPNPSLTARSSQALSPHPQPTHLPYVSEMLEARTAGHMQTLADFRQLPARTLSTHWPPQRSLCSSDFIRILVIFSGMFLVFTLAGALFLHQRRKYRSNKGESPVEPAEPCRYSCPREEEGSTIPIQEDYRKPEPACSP

Test [2] has as its target T2, Q15A.
T2 construct: also called hCD27 Q15A
T2 receptor: T1 receptor with Q15A, A87R

Test [3] concerns the target T3, G89A.
T3 construct: also called hCD27 G89A
T3 receptor: T1 receptor with A87R, G89A

In test [4] the target is T4, R10A.
T4 construct: also called hCD27 R10A
T4 receptor: T1 receptor with R10A, A87R

For test [5], the target named is T5, G16A.
T5 construct: also called hCD27 G16A
T5 receptor: T1 receptor with G16A, A87R

Test [6] addresses T6, R93A.
T6 construct: also called hCD27 R93A
T6 receptor: T1 receptor with A87R, R93A

Test [7] deals with T7, W13A.
T7 construct: also called hCD27 W13A
T7 receptor: T1 receptor with W13A, A87R

Test [8] has as its target T8, K31A.
T8 construct: also called hCD27 K31A
T8 receptor: T1 receptor with K31A, A87R

Test [9] deals with T9, E9A.
T9 construct: also called hCD27 E9A
T9 receptor: T1 receptor with E9A, A87R

The target in test [10] is T10, Q91A.
T10 construct: also called hCD27 Q91A
T10 receptor: T1 receptor with A87R, Q91A

Substitutions are numbered along the chain they refer to.

With 1A4 (mouse IgG1) (antibody), the % of WT hCD27 binding (geo mean FITC) turned out to be 108% in [1]; 7.6% in [2]; 81.8% in test [3]; 113% in test [4]; 97.3% in test [5]; 91.1% in test [6]. Moreover, the % of WT hCD27 binding (geo mean FITC) in test [7] was 93.4%; in test [8], 138%; in test [9], 122%; in test [10] it was 120%.

With 9F4 (mouse IgG2a) (antibody), the % of WT hCD27 binding (geo mean FITC) is 98.8% in test [1]; 118% in test [2]; 77.5% in test [3]; 99% in test [4]; 102% in test [5]; 91.1% in test [6]. For the same molecule, the % of WT hCD27 binding (geo mean FITC) amounted to 86.5% in [7], 133% in test [8], 109% in [9] and 111% in [10].

B1: Antibody hCD27.131A (mouse parental 131A) (antibody, V domains shown)
VH: QIQLVQSGPELKKPGETVKISCKASGYTFTNYGMNWVKQAPGKGLKWMGWINTNTGEPTYAEEFKGRFAFSLETSATTAYLQINNLKNEDTATYFCAREGDAMDYWGQGTSVTVSS
VL: QIVLTQSPAIMSASPGEKVTMTCSASSSVSYMHWYQQKSGTSPKRWIYDTSKLASGVPARFSGSGSGTSYSLTISSMEAEDAATYYCQQWNSYPFTFGSGTKLEIK
notes: mouse IgG1; also called mouse hCD27.131A
Consider B1, for which the “% of WT hCD27 binding (geo mean FITC)” value in [1] amounted to 111%; in [2], 136%; in [3] it was 82.9%; in test [4] it was 108%; in test [5] it was 108%; in [6], 90%. The “% of WT hCD27 binding (geo mean FITC)” value in test [7] came to 88.6%; in test [8] it was 134%; in test [9] it was 132%; in [10], 136%.

Source of the values: patent publication US20190300618A1 (Merck Sharp & Dohme, published 2019).
